Test results taken from patent publication US20140227251A1 (AbbVie / Abbott, published 2014).

Biological target: T1, Human TNF-α (R&D Systems) (human, UniProt P01375 77-233, labeled with Alexa Fluor 647 in the FACS assays)
T1 construct: also called Alexa Fluor 647-labeled TNF-α; TNF-α-AF647
Experiment: surface plasmon resonance (Biacore)

T1 sequence (P01375 77-233 limits assumed): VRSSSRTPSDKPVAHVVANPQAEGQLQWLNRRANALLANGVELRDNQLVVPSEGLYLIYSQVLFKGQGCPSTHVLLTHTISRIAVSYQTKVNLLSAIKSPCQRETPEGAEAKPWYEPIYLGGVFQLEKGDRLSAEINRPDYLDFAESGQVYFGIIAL

binding result | Binder
binds | D2E7 combination variant Y32K/SS-R30I (antibody, V domains shown, VL-SS backbone = G28S and A34S in CDR-L1 (Kabat); Expressed and purified variant antibody; also called Y2K in CDR-H1 with G5S, R7I and A11S in CDR-L1) VH: not shown VL: DIQMTQSPSSLSASVGDRVTITCRASQSIINYLSWYQQKPGKAPKLLIYAASTLQSGVPSRFSGSGSGTDFTLTISSLQPEDVATYYCQRYNRAPYTFGQGTKVEIK
binds | D2E7 combination variant Y32K/SS-R30T (antibody, V domains shown, VL-SS backbone = G28S and A34S in CDR-L1 (Kabat); Expressed and purified variant antibody; also called Y2K in CDR-H1 with G5S, R7T and A11S in CDR-L1) VH: not shown VL: DIQMTQSPSSLSASVGDRVTITCRASQSITNYLSWYQQKPGKAPKLLIYAASTLQSGVPSRFSGSGSGTDFTLTISSLQPEDVATYYCQRYNRAPYTFGQGTKVEIK
